Patent US20250179176A1, “ANTI-TIGIT ANTIBODIES AND USES OF THE SAME” (ARCUS BIOSCIENCES, INC., priority 2022, published 2025)

What was measured:
[1] = Clinical safety of domvanalimab, 99 participants (AB154CSP0001 and ARC-7): TEAEs, related AEs, SAEs; assay type: in vivo, human; conditions: for Any TEAEs / TEAE Diarrhoea / TEAE Fatigue / TEAE Nausea / TEAE Pruritus: Table 15
[2] = tested on: Jurkat cell line stably overexpressing human TIGIT; experiment: CDC assay with human complement; assay type: cell-based; conditions: increasing concentrations up to 33 nM
Protocol: Briefly, 50,000 Jurkat-TIGIT cells in RPMI 1640 medium (Invitrogen) containing 10% fetal bovine serum (FBS) were seeded into a 96-well round bottom plates (Nunc). Test antibodies were added starting at a top concentration of 50 μg/ml followed by a three-fold dilution series and allowed to incubate with cells for 1 hour at 37° C. in a 5% CO2 incubator. After this 1-hour incubation, human complement was added and allowed to incubate for an additional 3 hours at 37° C. in a 5% CO2 incubator. Following the completion of this 3-hour incubation, […] of propidium iodide (ThermoFisher) was added and samples were analyzed by flow cytometry (BD FACSCalibur) to determine the percentages of propidium iodide positivity as a readout for cell death.

B1: domvanalimab: anti-TIGIT antibody with engineered IgG1 Fc, reduced FcγR binding; heavy chain SEQ ID NO: 12, light chain SEQ ID NO: 13 (antibody)
heavy: EVQLVESGGGLVQPGGSLRLSCAASGFTFSNFGMHWVRQAPGKGLEWVAFISSGSSSIYYADTVKGRFTISRDNAKNSLYLQMNSLRAEDTAVYYCARMRLDYYAMDYWGQGTMVTVSSASTKGPSVFPLAPSSKSTSGGTAALGCLVKDYFPEPVTVSWNSGALTSGVHTFPAVLQSSGLYSLSSVVTVPSSSLGTQTYICNVNHKPSNTKVDKKVEPKSCDKTHTCPPCPAPEAAGGPSVFLFPPKPKDTLMISRTPEVTCWVDVSHEDPEVKFNWYVDGVEVHNAKTKPREEQYNSTYRWSVLTVLHQDWLNGKEYKCKVSNKALPAPIEKTISKAKGQPREPQVYTLPPSRDELTKNQVSLTCLVKGFYPSDIAVEWESNGQPENNYKTTPPVLDSDGSFFLYSKLTVDKSRWQQGNVFSCSVMHEALHNHYTQKSLSLSPGK
light: DIQMTQSPSSLSASVGDRVTITCRASKSISKYLAWYQQKPGKAPKLLIYSGSTLQSGVPSRFSGSGSGTDFTLTISSLQPEDFATYYCQQHNEYPWTFGGGTKVEIKRTVAAPSVFIFPPSDEQLKSGTASWCLLNNFYPREAKVQWKVDNALQSGNSQESVTEQDSKDSTYSLSSTLTLSKADYEKHKVYACEVTHQGLSSPVTKSFNRGEC
[1]; 99 participants
  SAE small bowel obstruction, frequency: 4.0%
[1]; AB154CSP0001 (N = 62)
  Domvanalimab-related AE: Abdominal distension: 1 ( 1.6%)
  Domvanalimab-related AE: Abdominal pain: 1 ( 1.6%)
  Domvanalimab-related AE: Anaemia: 1 ( 1.6%)
  Domvanalimab-related AE: Any AEs: 32 (51.6%)
  Domvanalimab-related AE: Arthralgia: 1 (1.6%)
  Domvanalimab-related AE: Arthritis: 1 ( 1.6%)
  Domvanalimab-related AE: Aspartate aminotransferase increased: 1 ( 1.6%)
  Domvanalimab-related AE: Back pain: 1 ( 1.6%)
  Domvanalimab-related AE: Constipation: 1 ( 1.6%)
  Domvanalimab-related AE: Decreased appetite: 1 (1.6%)
  Domvanalimab-related AE: Diarrhoea: 3 (4.8%)
  Domvanalimab-related AE: Fatigue: 4 (6.5%)
  Domvanalimab-related AE: Flank pain: 1 ( 1.6%)
  Domvanalimab-related AE: Headache: 3 (4.8%)
  Domvanalimab-related AE: Hot flush: 1 ( 1.6%)
  Domvanalimab-related AE: Hyperglycaemia: 1 ( 1.6%)
  Domvanalimab-related AE: Hyperkalaemia: 1 ( 1.6%)
  Domvanalimab-related AE: Hyperthyroidism: 2 (3.2%)
  Domvanalimab-related AE: Hypokalaemia: 1 ( 1.6%)
  Domvanalimab-related AE: Hypothyroidism: 4 (6.5%)
  Domvanalimab-related AE: Immune-mediated hepatitis: 2 ( 3.2%)
  Domvanalimab-related AE: Influenza like illness: 1 ( 1.6%)
  Domvanalimab-related AE: Infusion related reaction: 1 ( 1.6%)
  Domvanalimab-related AE: Liver function test increased: 1 ( 1.6%)
  Domvanalimab-related AE: Lymphopenia: 1 ( 1.6%)
  Domvanalimab-related AE: Muscle spasms: 1 ( 1.6%)
  Domvanalimab-related AE: Musculoskeletal chest pain: 1 ( 1.6%)
  Domvanalimab-related AE: Nail disorder: 1 ( 1.6%)
  Domvanalimab-related AE: Nasal mucosal disorder: 1 ( 1.6%)
  Domvanalimab-related AE: Nausea: 5 (8.1%)
  Domvanalimab-related AE: Oral pain: 1 ( 1.6%)
  Domvanalimab-related AE: Pain: 2 ( 3.2%)
  Domvanalimab-related AE: Peripheral sensory neuropathy: 1 ( 1.6%)
  Domvanalimab-related AE: Pneumonitis: 1 ( 1.6%)
  Domvanalimab-related AE: Pruritus: 5 (8.1%)
  Domvanalimab-related AE: Pruritus generalised: 1 ( 1.6%)
  Domvanalimab-related AE: Pulmonary pain: 1 ( 1.6%)
  Domvanalimab-related AE: Pyrexia: 3 (4.8%)
  Domvanalimab-related AE: Rash: 1 (1.6%)
  Domvanalimab-related AE: Rash maculo-papular: 3 (4.8%)
  Domvanalimab-related AE: Rash pruritic: 1 ( 1.6%)
  Domvanalimab-related AE: Transaminases increased: 1 ( 1.6%)
  Domvanalimab-related AE: Tumour flare: 3 (4.8%)
  Domvanalimab-related AE: Tumour pain: 1 ( 1.6%)
[1]; ARC-7 (N = 37)
  Domvanalimab-related AE: Adrenal insufficiency: 1 ( 2.7%)
  Domvanalimab-related AE: Any AEs: 18 (48.6%)
  Domvanalimab-related AE: Arthralgia: 3 (8.1%)
  Domvanalimab-related AE: Asthenia: 1 ( 2.7%)
  Domvanalimab-related AE: Back pain: 1 ( 2.7%)
  Domvanalimab-related AE: Constipation: 1 ( 2.7%)
  Domvanalimab-related AE: Cough: 1 ( 2.7%)
  Domvanalimab-related AE: Decreased appetite: 2 (5.4%)
  Domvanalimab-related AE: Delirium: 1 ( 2.7%)
  Domvanalimab-related AE: Diarrhoea: 2 (5.4%)
  Domvanalimab-related AE: Dry eye: 1 ( 2.7%)
  Domvanalimab-related AE: Dry mouth: 1 ( 2.7%)
  Domvanalimab-related AE: Dyspnoea exertional: 1 ( 2.7%)
  Domvanalimab-related AE: Fatigue: 2 (5.4%)
  Domvanalimab-related AE: Generalised oedema: 1 ( 2.7%)
  Domvanalimab-related AE: Headache: 1 (2.7%)
  Domvanalimab-related AE: Hyperthyroidism: 1 (2.7%)
  Domvanalimab-related AE: Infusion related reaction: 1 ( 2.7%)
  Domvanalimab-related AE: Infusion site pain: 1 ( 2.7%)
  Domvanalimab-related AE: Malaise: 2 ( 5.4%)
  Domvanalimab-related AE: Myalgia: 1 ( 2.7%)
  Domvanalimab-related AE: Nausea: 1 (2.7%)
  Domvanalimab-related AE: Pancreatitis: 1 ( 2.7%)
  Domvanalimab-related AE: Paraesthesia: 1 ( 2.7%)
  Domvanalimab-related AE: Pneumonitis: 1 ( 2.7%)
  Domvanalimab-related AE: Pruritus: 4 (10.8%)
  Domvanalimab-related AE: Pyrexia: 2 (5.4%)
  Domvanalimab-related AE: Rash: 3 (8.1%)
  Domvanalimab-related AE: Rash maculo-papular: 3 (8.1%)
  Domvanalimab-related AE: Rhinorrhoea: 1 ( 2.7%)
  Domvanalimab-related AE: Vomiting: 1 ( 2.7%)
[1]; ARC-7 (n = 37)
  Any TEAEs: 31 (83.8%)
  TEAE Diarrhoea: 5 (13.5%)
  TEAE Fatigue: 3 (8.1%)
  TEAE Nausea: 4 (10.8%)
  TEAE Pruritus: 4 (10.8%)
[1]; Total (n = 99)
  Any TEAEs: 84 (84.8%)
  TEAE Diarrhoea: 10 (10.1%)
  TEAE Fatigue: 12 (12.1%)
  TEAE Nausea: 13 (13.1%)
  TEAE Pruritus: 10 (10.1%)
[1]; n = 62
  Any TEAEs: 53 (85.5%)
  TEAE Diarrhoea: 5 (8.1%)
  TEAE Fatigue: 9 (14.5%)
  TEAE Nausea: 9 (14.5%)
  TEAE Pruritus: 6 (9.7%)
[1]; Total (N = 99)
  Domvanalimab-related AE: Abdominal distension: 1 ( 1.0%)
  Domvanalimab-related AE: Abdominal pain: 1 ( 1.0%)
  Domvanalimab-related AE: Adrenal insufficiency: 1 ( 1.0%)
  Domvanalimab-related AE: Anaemia: 1 ( 1.0%)
  Domvanalimab-related AE: Any AEs: 50 (50.5%)
  Domvanalimab-related AE: Arthralgia: 4 (4.0%)
  Domvanalimab-related AE: Arthritis: 1 ( 1.0%)
  Domvanalimab-related AE: Aspartate aminotransferase increased: 1 ( 1.0%)
  Domvanalimab-related AE: Asthenia: 1 ( 1.0%)
  Domvanalimab-related AE: Back pain: 2 ( 2.0%)
  Domvanalimab-related AE: Constipation: 2 ( 2.0%)
  Domvanalimab-related AE: Cough: 1 ( 1.0%)
  Domvanalimab-related AE: Decreased appetite: 3 (3.0%)
  Domvanalimab-related AE: Delirium: 1 ( 1.0%)
  Domvanalimab-related AE: Diarrhoea: 5 (5.1%)
  Domvanalimab-related AE: Dry eye: 1 ( 1.0%)
  Domvanalimab-related AE: Dry mouth: 1 ( 1.0%)
  Domvanalimab-related AE: Dyspnoea exertional: 1 ( 1.0%)
  Domvanalimab-related AE: Fatigue: 6 (6.1%)
  Domvanalimab-related AE: Flank pain: 1 ( 1.0%)
  Domvanalimab-related AE: Generalised oedema: 1 ( 1.0%)
  Domvanalimab-related AE: Headache: 4 (4.0%)
  Domvanalimab-related AE: Hot flush: 1 ( 1.0%)
  Domvanalimab-related AE: Hyperglycaemia: 1 ( 1.0%)
  Domvanalimab-related AE: Hyperkalaemia: 1 ( 1.0%)
  Domvanalimab-related AE: Hyperthyroidism: 3 (3.0%)
  Domvanalimab-related AE: Hypokalaemia: 1 ( 1.0%)
  Domvanalimab-related AE: Hypothyroidism: 4 (4.0%)
  Domvanalimab-related AE: Immune-mediated hepatitis: 2 ( 2.0%)
  Domvanalimab-related AE: Influenza like illness: 1 ( 1.0%)
  Domvanalimab-related AE: Infusion related reaction: 2 ( 2.0%)
  Domvanalimab-related AE: Infusion site pain: 1 ( 1.0%)
  Domvanalimab-related AE: Liver function test increased: 1 ( 1.0%)
  Domvanalimab-related AE: Lymphopenia: 1 ( 1.0%)
  Domvanalimab-related AE: Malaise: 2 ( 2.0%)
  Domvanalimab-related AE: Muscle spasms: 1 ( 1.0%)
  Domvanalimab-related AE: Musculoskeletal chest pain: 1 ( 1.0%)
  Domvanalimab-related AE: Myalgia: 1 ( 1.0%)
  Domvanalimab-related AE: Nail disorder: 1 ( 1.0%)
  Domvanalimab-related AE: Nasal mucosal disorder: 1 ( 1.0%)
  Domvanalimab-related AE: Nausea: 6 (6.1%)
  Domvanalimab-related AE: Oral pain: 1 ( 1.0%)
  Domvanalimab-related AE: Pain: 2 ( 2.0%)
  Domvanalimab-related AE: Pancreatitis: 1 ( 1.0%)
  Domvanalimab-related AE: Paraesthesia: 1 ( 1.0%)
  Domvanalimab-related AE: Peripheral sensory neuropathy: 1 ( 1.0%)
  Domvanalimab-related AE: Pneumonitis: 2 ( 2.0%)
  Domvanalimab-related AE: Pruritus: 9 (9.1%)
  Domvanalimab-related AE: Pruritus generalised: 1 ( 1.0%)
  Domvanalimab-related AE: Pulmonary pain: 1 ( 1.0%)
  Domvanalimab-related AE: Pyrexia: 5 (5.1%)
  Domvanalimab-related AE: Rash: 4 (4.0%)
  Domvanalimab-related AE: Rash maculo-papular: 6 (6.1%)
  Domvanalimab-related AE: Rash pruritic: 1 ( 1.0%)
  Domvanalimab-related AE: Rhinorrhoea: 1 ( 1.0%)
  Domvanalimab-related AE: Transaminases increased: 1 ( 1.0%)
  Domvanalimab-related AE: Tumour flare: 3 (3.0%)
  Domvanalimab-related AE: Tumour pain: 1 ( 1.0%)
  Domvanalimab-related AE: Vomiting: 1 ( 1.0%)
[1]; clinical data to date
  tolerability in cancer patients: well tolerated
[2]
  complement-dependent cytotoxicity: No cytotoxicity
